Assays:
AncSZ = test: phosphorylation enrichment, bacterial display (enrichment ratio); higher = better substrate or ligand; peptides without Tyr show the background
EPHB1 = EPHB1 (UniProt P54762); test: as above
EPHB2 = EPHB2 (UniProt P29323); test: as above
FGFR1 = FGFR1 (UniProt P11362); test: as above
FGFR3 = FGFR3 (UniProt P22607); test: as above
Fer (mouse) = test: as above
Fes = Fes (UniProt P07332); test: as above
Fyn = Fyn (UniProt P06241); test: as above
Hck = Hck (UniProt P08631); test: as above
Sequence of Hck (P08631 whole entry, looked up): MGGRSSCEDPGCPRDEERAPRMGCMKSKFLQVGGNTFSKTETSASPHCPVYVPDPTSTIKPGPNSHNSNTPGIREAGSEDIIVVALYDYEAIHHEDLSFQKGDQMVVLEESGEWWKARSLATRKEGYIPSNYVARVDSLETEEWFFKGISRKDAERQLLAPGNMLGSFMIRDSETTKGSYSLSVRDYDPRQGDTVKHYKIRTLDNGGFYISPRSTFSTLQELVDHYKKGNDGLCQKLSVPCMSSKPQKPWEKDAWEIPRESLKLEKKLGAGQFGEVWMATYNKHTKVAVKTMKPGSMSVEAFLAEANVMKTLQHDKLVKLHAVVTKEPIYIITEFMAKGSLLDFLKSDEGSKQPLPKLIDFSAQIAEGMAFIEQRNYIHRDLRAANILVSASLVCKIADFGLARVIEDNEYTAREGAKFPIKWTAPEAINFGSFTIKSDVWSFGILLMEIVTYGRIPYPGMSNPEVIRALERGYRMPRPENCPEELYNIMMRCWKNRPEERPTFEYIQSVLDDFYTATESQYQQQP

Jak2 = Jak2 (UniProt O60674); test: as above
MERTK = MERTK (UniProt Q12866); test: as above
Sequence of MERTK (Q12866 whole entry, looked up): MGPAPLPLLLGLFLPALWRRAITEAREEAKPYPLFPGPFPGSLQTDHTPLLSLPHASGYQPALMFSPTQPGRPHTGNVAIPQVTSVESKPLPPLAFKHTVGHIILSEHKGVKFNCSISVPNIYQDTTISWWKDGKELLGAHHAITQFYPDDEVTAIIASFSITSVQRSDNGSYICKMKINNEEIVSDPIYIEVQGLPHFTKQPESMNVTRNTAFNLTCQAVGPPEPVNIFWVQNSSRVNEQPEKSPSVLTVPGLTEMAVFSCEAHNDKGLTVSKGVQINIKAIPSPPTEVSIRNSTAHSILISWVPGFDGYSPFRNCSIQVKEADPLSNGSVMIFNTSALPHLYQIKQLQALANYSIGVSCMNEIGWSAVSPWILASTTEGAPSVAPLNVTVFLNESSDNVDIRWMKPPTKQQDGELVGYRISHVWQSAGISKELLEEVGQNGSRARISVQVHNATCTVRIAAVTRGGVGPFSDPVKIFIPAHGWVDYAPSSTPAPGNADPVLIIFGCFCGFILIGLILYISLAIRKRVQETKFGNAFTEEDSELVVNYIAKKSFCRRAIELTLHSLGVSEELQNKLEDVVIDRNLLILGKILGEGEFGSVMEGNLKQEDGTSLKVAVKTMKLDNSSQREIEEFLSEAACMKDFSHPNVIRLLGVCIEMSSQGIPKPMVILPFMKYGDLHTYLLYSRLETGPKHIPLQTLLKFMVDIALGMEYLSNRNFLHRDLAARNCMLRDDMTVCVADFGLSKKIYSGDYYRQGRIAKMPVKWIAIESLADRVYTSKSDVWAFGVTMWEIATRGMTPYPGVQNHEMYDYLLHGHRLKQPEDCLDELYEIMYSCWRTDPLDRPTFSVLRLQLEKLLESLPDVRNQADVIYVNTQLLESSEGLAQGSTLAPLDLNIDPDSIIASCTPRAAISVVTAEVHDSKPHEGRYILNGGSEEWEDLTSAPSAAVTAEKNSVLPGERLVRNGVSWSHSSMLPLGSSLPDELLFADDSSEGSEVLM

c-Abl (mouse) = test: as above
c-Src = test: as above
Grb2 SH2 = Grb2 SH2 (UniProt P62993); test: SH2 binding enrichment of the phosphorylated peptide, bacterial display (enrichment ratio); higher = better substrate or ligand; peptides without Tyr show the background
Sequence of Grb2 SH2 (P62993 whole entry, looked up): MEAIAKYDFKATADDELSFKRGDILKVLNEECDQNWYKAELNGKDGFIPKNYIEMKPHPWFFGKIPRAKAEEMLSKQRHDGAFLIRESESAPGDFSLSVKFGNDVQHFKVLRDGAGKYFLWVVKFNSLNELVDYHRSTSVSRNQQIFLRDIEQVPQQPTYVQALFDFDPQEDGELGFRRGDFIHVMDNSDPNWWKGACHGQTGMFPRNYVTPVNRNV

SHP2-C SH2 = test: as above
c-Src SH2 = test: as above
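For SH2 binding enrichment of the phosphorylated peptide, bacterial display in this document: peptide library displayed on the E. coli surface as eCPX fusions, selected cells deep-sequenced, score is each peptide's frequency after selection divided by its frequency in the input.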
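For phosphorylation enrichment, bacterial display in this document: 11-residue human phosphosite peptides and single-mutation variants displayed on the E. coli surface, counted by deep sequencing, each peptide's frequency after selection divided by its frequency in the unselected input library; frequency after pTyr selection over input frequency; kinase dosed for 20-30% of maximal phosphorylation in three min.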

Sequence of Fyn (P06241 whole entry, looked up): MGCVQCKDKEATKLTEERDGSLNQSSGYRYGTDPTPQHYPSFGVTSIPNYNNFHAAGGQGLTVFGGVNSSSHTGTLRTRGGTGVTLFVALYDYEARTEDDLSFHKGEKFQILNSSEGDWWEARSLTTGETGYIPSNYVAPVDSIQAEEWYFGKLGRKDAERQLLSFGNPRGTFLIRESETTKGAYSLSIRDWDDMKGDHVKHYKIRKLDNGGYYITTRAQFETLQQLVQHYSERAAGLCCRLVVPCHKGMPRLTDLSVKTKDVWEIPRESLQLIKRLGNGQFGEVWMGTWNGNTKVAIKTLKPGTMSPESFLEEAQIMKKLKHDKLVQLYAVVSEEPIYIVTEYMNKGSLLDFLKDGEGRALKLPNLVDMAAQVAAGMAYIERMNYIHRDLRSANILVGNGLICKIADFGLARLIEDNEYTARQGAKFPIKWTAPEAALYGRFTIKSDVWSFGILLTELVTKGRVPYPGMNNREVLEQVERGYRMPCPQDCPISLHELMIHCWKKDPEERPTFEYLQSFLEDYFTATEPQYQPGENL
Sequence of FGFR1 (P11362 whole entry, looked up): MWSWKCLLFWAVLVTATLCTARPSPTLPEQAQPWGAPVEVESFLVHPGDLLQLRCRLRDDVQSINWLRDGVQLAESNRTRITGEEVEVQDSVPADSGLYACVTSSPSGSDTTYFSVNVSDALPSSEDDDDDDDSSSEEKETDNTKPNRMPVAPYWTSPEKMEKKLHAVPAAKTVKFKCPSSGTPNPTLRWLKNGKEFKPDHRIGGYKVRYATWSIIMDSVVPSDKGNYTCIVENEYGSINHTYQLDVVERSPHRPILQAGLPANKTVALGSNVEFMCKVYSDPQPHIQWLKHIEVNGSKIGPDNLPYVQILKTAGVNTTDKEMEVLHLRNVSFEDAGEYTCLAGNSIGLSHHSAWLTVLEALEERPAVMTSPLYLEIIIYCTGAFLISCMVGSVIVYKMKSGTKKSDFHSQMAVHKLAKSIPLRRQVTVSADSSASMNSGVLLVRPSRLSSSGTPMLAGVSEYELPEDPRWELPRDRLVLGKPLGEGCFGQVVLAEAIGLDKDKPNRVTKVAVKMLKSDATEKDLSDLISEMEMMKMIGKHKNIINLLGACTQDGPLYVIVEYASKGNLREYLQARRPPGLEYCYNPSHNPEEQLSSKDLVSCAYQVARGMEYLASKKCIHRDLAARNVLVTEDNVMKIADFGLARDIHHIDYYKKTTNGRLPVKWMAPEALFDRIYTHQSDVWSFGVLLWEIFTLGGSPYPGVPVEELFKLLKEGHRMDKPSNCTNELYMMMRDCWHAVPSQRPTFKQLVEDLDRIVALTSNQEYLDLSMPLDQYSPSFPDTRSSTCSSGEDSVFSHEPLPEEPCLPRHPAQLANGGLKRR
Sequence of EPHB1 (P54762 whole entry, looked up): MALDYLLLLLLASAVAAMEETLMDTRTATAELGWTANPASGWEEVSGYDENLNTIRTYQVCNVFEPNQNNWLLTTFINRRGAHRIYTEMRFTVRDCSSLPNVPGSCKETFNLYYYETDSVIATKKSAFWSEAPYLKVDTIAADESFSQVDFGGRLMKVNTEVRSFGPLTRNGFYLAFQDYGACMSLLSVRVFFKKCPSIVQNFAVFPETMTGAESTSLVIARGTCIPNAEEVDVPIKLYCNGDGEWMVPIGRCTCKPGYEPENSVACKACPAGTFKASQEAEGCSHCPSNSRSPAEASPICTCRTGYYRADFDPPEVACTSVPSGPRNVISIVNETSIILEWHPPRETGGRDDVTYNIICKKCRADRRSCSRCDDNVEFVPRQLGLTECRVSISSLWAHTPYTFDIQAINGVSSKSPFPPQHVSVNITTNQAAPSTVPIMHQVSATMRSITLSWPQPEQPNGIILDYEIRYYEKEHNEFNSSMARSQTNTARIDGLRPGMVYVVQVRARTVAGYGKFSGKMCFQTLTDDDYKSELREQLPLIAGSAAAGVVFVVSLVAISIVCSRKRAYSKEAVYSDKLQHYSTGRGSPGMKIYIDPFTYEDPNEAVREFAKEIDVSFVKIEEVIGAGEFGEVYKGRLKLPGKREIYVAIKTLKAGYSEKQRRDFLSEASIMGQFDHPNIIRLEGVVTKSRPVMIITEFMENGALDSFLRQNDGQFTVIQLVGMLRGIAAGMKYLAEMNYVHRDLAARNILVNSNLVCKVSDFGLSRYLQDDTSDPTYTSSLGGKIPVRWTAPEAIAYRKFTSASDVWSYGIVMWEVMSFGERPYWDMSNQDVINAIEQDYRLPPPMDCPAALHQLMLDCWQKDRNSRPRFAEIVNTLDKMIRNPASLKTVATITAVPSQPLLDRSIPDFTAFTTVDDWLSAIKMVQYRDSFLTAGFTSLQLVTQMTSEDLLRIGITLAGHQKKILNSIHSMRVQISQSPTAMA
Sequence of FGFR3 (P22607 whole entry, looked up): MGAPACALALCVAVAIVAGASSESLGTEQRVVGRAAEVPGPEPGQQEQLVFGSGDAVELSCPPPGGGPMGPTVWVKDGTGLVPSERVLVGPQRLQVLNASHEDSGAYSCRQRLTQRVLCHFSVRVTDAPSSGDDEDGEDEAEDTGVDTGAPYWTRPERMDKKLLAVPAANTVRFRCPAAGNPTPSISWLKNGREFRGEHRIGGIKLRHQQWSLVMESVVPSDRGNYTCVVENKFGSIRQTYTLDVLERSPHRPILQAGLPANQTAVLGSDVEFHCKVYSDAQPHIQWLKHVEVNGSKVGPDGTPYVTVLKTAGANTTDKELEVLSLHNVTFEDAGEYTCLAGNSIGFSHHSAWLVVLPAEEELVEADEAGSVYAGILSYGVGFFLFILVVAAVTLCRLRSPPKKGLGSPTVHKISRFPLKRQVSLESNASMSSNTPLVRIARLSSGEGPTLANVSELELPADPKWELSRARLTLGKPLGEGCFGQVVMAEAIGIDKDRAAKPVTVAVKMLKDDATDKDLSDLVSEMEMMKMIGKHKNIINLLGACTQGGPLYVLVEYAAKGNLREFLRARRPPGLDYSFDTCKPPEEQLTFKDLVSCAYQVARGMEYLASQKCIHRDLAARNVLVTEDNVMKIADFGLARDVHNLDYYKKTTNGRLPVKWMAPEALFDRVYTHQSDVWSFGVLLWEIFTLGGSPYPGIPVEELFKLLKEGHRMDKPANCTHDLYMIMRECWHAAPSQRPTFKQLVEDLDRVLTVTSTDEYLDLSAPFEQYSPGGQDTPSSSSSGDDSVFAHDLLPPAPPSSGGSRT

Row | Sequence | phosphorylation enrichment (AncSZ) | phosphorylation enrichment (EPHB1) | phosphorylation enrichment (EPHB2) | phosphorylation enrichment (FGFR1) | phosphorylation enrichment (FGFR3) | phosphorylation enrichment (Fer (mouse)) | phosphorylation enrichment (Fes) | phosphorylation enrichment (Fyn) | phosphorylation enrichment (Hck) | phosphorylation enrichment (Jak2) | phosphorylation enrichment (MERTK) | phosphorylation enrichment (c-Abl (mouse)) | phosphorylation enrichment (c-Src) | SH2 binding enrichment (Grb2 SH2) | SH2 binding enrichment (SHP2-C SH2) | SH2 binding enrichment (c-Src SH2)
1 | PSAELYSFALP [PDGFRB_Y716_N718Y_YF] | 2.77 | 10.7 | 11.8 | 6.2 | 5.36 | 17.4 | 1.28 | 7.74 | 6.93 | 1.03 | 13.2 | 1.51 | 7.32 | 0.911 | 0.631 | 0.546
2 | PSAVAYPKRSQ [MARK3_Y432_V429A] | 0.697 | 0.544 | 0.563 | 0.382 | 0.545 | 0.444 | 0.818 | 0.563 | 0.441 | 0.577 | 0.685 | 0.615 | 0.696 | 1.06 | 0.646 | 0.473
3 | PSDLLYILDIQ [ITGA2B_Y845] | 2.77 | 1.07 | 1.06 | 1.35 | 1.91 | 1.32 | 2.33 | 2.82 | 1.57 | 2.24 | 2.82 | 1.17 | 4.22 | 1.19 | 0.492 | 0.571
4 | PSQRRNVFFFS [PTEN_Y174_Y174N_YF] | 1.31 | 0.559 | 0.342 | 1.07 | 0.777 | 0.493 | 1.23 | 0.924 | 1.41 | 0.54 | 0.571 | 0.817 | 0.591 | 0.769 | 1.09 | 0.613
5 | PSRKDYETFQP [CTNND2_Y1154_YF] | 1.22 | 1.04 | 1.52 | 0.558 | 0.667 | 0.473 | 1.21 | 0.605 | 0.73 | 1.11 | 0.572 | 0.907 | 0.737 | 0.884 | 0.372 | 0.645
6 | PTFEHYANSTQ [SLC12A3_Y70_YF] | 1.34 | 0.768 | 0.993 | 0.818 | 0.988 | 1.14 | 1.07 | 0.852 | 0.598 | 0.742 | 0.771 | 0.742 | 0.433 | 1.43 | 0.576 | 1.09
7 | PTKNDYWAMPA [WWOX_Y287_L291P] | 2.02 | 18.6 | 14.4 | 20.6 | 16.3 | 0.469 | 1.03 | 0.987 | 1.82 | 2.69 | 5.26 | 1.39 | 0.952 | 0.732 | 0.669 | 0.586
8 | PTTMTYFPHFD [HBA1_Y43_K41M] | 0.823 | 0.603 | 0.577 | 2.97 | 2.32 | 0.521 | 1.01 | 0.554 | 0.951 | 1.61 | 0.802 | 0.859 | 0.754 | 1.13 | 0.782 | 0.658
9 | PTYKHYANSTQ [SLC12A3_Y70_E68K] | 0.39 | 0.391 | 0.418 | 0.529 | 0.466 | 0.448 | 0.592 | 0.542 | 0.434 | 0.593 | 0.442 | 0.44 | 0.422 | 0.702 | 0.768 | 0.56
10 | PYRSIYFSSPK [MPG_Y75] | 0.878 | 0.519 | 0.582 | 0.778 | 0.856 | 0.72 | 0.648 | 1.03 | 1.09 | 0.657 | 0.835 | 0.887 | 0.903 | 0.952 | 1.34 | 0.594
11 | QADVVYVNTQL [MERTK_Y872_I871V] | 0.822 | 0.66 | 1.17 | 0.88 | 0.648 | 3.51 | 1.8 | 0.729 | 0.729 | 0.728 | 0.372 | 0.631 | 0.738 | 4.29 | 1.43 | 0.718
12 | QAPPIYLDVLG [NTRK1_Y791_V790I] | 1.31 | 13.6 | 3.26 | 3.35 | 2.38 | 3.26 | 0.952 | 1.46 | 2.11 | 1.21 | 3.35 | 0.878 | 1.71 | 0.791 | 0.734 | 0.413
13 | QCTSAYPLQPE [NANS_Y188] | 1.51 | 0.719 | 0.813 | 0.616 | 0.942 | 0.675 | 1.46 | 0.832 | 0.623 | 1.65 | 0.682 | 2.7 | 0.728 | 1.06 | 1.09 | 0.594
14 | QCTSDYPEHVC [SART3_Y541] | 1.36 | 0.929 | 0.523 | 0.929 | 0.969 | 0.668 | 1.44 | 0.605 | 0.831 | 1.64 | 0.565 | 1.23 | 0.583 | 0.939 | 0.833 | 0.866
15 | QDLRLYRPHLA [BTK_Y617_G613D] | 0.578 | 0.517 | 0.467 | 0.358 | 0.488 | 0.5 | 0.931 | 0.505 | 0.548 | 1.17 | 0.363 | 0.571 | 0.474 | 0.728 | 0.555 | 0.581
16 | QEALEYFMKQV [PIK3CA_Y1038_M1043V] | 1.18 | 0.467 | 0.392 | 0.408 | 0.565 | 0.402 | 0.978 | 0.382 | 0.416 | 0.849 | 0.289 | 0.597 | 0.463 | 0.664 | 1.05 | 0.472
